In IntAct's records for PubMed 21600204:

B1: OriC-binding nucleoid-associated protein (Escherichia coli (strain K12)), P64467 (parent)
chain: MTVQDYLLKFRKISSLESLEKLYDHLNYTLTDDQELINMYRAADHRRAELVSGGRLFDLGQVPKSVWHYVQ
partner: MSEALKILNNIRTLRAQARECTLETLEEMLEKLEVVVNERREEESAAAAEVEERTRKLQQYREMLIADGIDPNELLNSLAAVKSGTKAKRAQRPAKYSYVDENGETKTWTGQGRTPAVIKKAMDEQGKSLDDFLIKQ
B2: Hemolysin expression-modulating protein Hha (Escherichia coli (strain K12)), P0ACE3 (parent)
chain: MSEKPLTKTDYLMRLRRCQTIDTLERVIEKNKYELSDNELAVFYSAADHRLAELTMNKLYDKIPSSVWKFIR
partner: B1 partner

Variants of: B1
Settings: with hns_ecoli hns

Variant	effect of a mutation on the interaction
D44N	disrupting interaction

Variants of: B2
Settings: with hns_ecoli hns

Variant	effect of a mutation on the interaction
E25Q	decreasing interaction

Variants of: B2
Settings: with hns_ecoli hns
Remark: another data set of the same source

Variant	effect of a mutation on the interaction
D48N	disrupting interaction
